Positions count from the first letter of the chain named.

The chains are these.
T1: human EphA1 extracellular region-SEAP-His protein (human, UniProt P21709 26-547)
T1 construct: extracellular domain; also called hEphA1-SEAP-His
T1 sequence (looked up): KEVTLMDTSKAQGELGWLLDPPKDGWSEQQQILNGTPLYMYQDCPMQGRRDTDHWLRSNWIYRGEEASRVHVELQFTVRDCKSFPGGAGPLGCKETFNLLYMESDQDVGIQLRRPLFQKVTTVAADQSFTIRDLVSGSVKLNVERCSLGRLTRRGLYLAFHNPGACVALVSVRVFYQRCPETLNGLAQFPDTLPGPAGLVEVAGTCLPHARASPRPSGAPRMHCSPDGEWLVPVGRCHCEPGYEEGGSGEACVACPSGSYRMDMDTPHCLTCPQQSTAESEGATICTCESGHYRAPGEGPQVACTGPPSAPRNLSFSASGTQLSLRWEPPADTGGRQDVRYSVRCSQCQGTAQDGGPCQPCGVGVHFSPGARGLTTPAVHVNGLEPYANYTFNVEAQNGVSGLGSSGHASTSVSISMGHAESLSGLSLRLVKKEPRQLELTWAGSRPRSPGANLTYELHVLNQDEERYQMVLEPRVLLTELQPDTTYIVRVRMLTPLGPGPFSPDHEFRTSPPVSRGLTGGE

T2: human EphA7 extracellular region-SEAP-His protein (human, UniProt Q15375 28-555)
T2 construct: extracellular domain; also called hEphA7-SEAP-His
T2 sequence (looked up): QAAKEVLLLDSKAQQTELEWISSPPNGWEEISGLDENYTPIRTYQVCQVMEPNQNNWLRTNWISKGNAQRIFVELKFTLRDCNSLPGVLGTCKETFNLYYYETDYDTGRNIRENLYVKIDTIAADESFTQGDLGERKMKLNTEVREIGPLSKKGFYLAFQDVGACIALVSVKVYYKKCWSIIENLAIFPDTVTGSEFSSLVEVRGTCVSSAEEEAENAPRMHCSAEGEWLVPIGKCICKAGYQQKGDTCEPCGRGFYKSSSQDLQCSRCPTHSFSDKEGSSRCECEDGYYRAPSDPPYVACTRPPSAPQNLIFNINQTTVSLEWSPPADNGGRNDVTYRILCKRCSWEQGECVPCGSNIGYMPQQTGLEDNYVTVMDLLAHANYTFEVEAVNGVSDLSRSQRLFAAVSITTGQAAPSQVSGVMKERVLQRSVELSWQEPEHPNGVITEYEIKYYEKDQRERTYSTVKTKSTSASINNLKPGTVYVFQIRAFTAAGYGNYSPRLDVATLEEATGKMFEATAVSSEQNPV

T3: human EphB3 extracellular region-SEAP-His protein (human, UniProt P54753 34-559)
T3 construct: extracellular domain; also called hEphB3-SEAP-His
T3 sequence (looked up): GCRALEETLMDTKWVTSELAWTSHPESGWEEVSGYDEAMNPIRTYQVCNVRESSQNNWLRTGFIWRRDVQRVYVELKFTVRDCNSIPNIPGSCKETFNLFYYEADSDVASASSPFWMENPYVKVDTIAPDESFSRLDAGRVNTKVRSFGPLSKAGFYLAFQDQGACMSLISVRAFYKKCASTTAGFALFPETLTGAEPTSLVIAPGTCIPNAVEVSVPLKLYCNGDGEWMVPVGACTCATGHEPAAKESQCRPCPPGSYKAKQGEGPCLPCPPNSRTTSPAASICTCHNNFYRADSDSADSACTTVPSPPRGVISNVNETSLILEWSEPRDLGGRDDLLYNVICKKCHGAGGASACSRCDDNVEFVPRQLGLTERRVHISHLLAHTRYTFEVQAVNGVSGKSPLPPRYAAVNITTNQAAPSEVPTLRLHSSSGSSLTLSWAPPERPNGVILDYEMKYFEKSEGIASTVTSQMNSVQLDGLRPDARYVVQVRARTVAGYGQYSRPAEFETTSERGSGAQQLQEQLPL

T4: human EphB6 extracellular region-SEAP-His protein (human, UniProt O15197 32-594)
T4 construct: extracellular domain; also called hEphB6-SEAP-His
T4 sequence (looked up): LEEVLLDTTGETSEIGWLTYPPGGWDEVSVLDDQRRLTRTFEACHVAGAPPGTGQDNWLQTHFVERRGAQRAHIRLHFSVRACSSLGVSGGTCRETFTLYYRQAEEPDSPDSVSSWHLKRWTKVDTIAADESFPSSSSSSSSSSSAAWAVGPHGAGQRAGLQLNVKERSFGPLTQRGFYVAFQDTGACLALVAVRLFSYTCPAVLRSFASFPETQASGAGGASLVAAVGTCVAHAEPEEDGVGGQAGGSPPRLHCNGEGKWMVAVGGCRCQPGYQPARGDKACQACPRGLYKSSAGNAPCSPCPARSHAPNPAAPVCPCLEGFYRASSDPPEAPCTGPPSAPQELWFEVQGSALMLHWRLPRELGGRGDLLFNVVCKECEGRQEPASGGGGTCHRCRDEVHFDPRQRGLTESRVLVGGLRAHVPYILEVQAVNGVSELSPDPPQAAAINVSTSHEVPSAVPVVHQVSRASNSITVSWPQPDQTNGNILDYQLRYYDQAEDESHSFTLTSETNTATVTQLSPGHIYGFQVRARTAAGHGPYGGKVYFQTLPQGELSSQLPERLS

B1: humanized antibody No. 86 (antibody, human IgG1, kappa)
heavy: QIQLVQSGSELKKPGASVKVSCKASGYTFTDYSMHWVRQAPGQGLKWMGWINTETGEPTYADDFKGRFVFSLDTSVSTAYLQISSLKAEDTAVYYCARIPLYYYGSRYWYFDVWGQGTTVTVSSASTKGPSVFPLAPSSKSTSGGTAALGCLVKDYFPEPVTVSWNSGALTSGVHTFPAVLQSSGLYSLSSVVTVPSSSLGTQTYICNVNHKPSNTKVDKRVEPKSCDKTHTCPPCPAPPAAAPSVFLFPPKPKDTLMISRTPEVTCVVVDVSHEDPEVQFNWYVDGVEVHNAKTKPREEQFNSTFRVVSVLTVVHQDWLNGKEYKCKVSNKGLPAPIEKTISKTKGQPREPQVYTLPPSREEMTKNQVSLTCLVKGFYPSDIAVEWESNGQPENNYKTTPPMLDSDGSFFLYSKLTVDKSRWQQGNVFSCSVMHEALHNHYTQKSLSLSPG
light: DIQMTQSPSSLSASVGDRVTITCRASENIYRNLAWYQQKPGKAPKLLLYAATNLADGVPSRFSGSGSGTDYTLTISSLQSEDFATYYCQHFWGTPWTFGQGTKVEIKRTVAAPSVFIFPPSDEQLKSGTASVVCLLNNFYPREAKVQWKVDNALQSGNSQESVTEQDSKDSTYSLSSTLTLSKADYEKHKVYACEVTHQGLSSPVTKSFNRGEC
notes: human Ig kappa; also called L1-5/HK4
B2: humanized antibody No. 140 (antibody, human IgG2)
heavy: QVQLVQSGSELKKPGASVKVSCKASGYTFTDYSMHWVRQAPGQGLKWMGWINTETGEPTYAQGFTGRFVFSLDTSVSTAYLQISSLKAEDTAVYYCARIPLYYYGSRYWYFDVWGQGTTVTVSSASTKGPSVFPLAPSSRSTSESTAALGCLVKDYFPEPVTVSWNSGALTSGVHTFPAVLQSSGLYSLSSVVTVPSSNFGTQTYTCNVDHKPSNTKVDKTVERKSCVECPPCPAPPAAAPSVFLFPPKPKDTLMISRTPEVTCVVVDVSHEDPEVQFNWYVDGVEVHNAKTKPREEQFNSTFRVVSVLTVVHQDWLNGKEYKCKVSNKGLPAPIEKTISKTKGQPREPQVYTLPPSREEMTKNQVSLTCLVKGFYPSDIAVEWESNGQPENNYKTTPPMLDSDGSFFLYSKLTVDKSRWQQGNVFSCSVMHEALHNHYTQKSLSLSPG
light: B1 light with L48V, S80P
notes: human Ig kappa; also called L1-4/HA2
B3: humanized antibody No. 139 (antibody, human IgG2)
heavy: B2 heavy with K46E
light: B1 light with L48V, S80P
notes: human Ig kappa; also called L1-4/HA1
B4: humanized antibody No. 87 (antibody, human IgG1, kappa)
heavy: B1 heavy with I2V, K46E, D62Q, D63G, K65T
light: B1 light with K45Q, S80P
notes: human Ig kappa; also called L1-6/HA1
B5: humanized antibody No. 91 (antibody, human IgG1, kappa)
heavy: B1 heavy with I2V
light: B1 light with K45Q, S80P
notes: human Ig kappa; also called L1-6/HK2
B6: humanized antibody No. 138 (antibody, human IgG2)
heavy: B2 heavy with V2I
light: B1 light with L48V, S80P
notes: human Ig kappa; also called L1-4/HA4
B7: humanized antibody No. 89 (antibody, human IgG1, kappa)
heavy: B1 heavy with D62Q, D63G, K65T
light: B1 light with K45Q, S80P
notes: human Ig kappa; also called L1-6/HA4
B8: humanized antibody No. 90 (antibody, human IgG1, kappa)
heavy: B1 heavy with I2V, K46E
light: B1 light with K45Q, S80P
notes: human Ig kappa; also called L1-6/HK1
B9: humanized antibody No. 88 (antibody, human IgG1, kappa)
heavy: B1 heavy with I2V, D62Q, D63G, K65T
light: B1 light with K45Q, S80P
notes: human Ig kappa; also called L1-6/HA2
B10: humanized antibody No. 92 (antibody, human IgG1, kappa)
heavy: B1 heavy
light: B1 light with K45Q, S80P
notes: human Ig kappa; also called L1-6/HK4

SEAP-His, sequence (P05187 23-511): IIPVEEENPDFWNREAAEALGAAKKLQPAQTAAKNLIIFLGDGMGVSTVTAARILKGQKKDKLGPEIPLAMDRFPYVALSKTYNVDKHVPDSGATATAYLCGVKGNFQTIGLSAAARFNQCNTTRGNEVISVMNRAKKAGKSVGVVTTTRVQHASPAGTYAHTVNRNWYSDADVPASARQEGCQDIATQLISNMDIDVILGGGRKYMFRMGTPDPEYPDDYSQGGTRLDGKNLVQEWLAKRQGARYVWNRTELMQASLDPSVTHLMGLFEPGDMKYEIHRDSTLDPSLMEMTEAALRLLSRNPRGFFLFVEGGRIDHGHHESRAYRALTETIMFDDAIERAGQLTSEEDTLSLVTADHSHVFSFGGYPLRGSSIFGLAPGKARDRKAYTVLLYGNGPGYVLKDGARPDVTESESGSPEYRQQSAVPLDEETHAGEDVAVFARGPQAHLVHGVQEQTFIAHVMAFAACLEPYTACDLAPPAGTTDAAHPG

The first test addresses SEAP-His (UniProt P05187 23-511). Description: ELISA.
As for B1, the “A450 as % of hEphA4-SEAP-His” value was found to be 6.1%.
On to B2, for which the “A450 as % of hEphA4-SEAP-His” value worked out at 5.4%.
Consider B3, for which the “A450 as % of hEphA4-SEAP-His” value was 5.7%.
The same measure, in the same setting: for B4 the value was 5.5%; for B5, 6.4%.
As to B6, the “A450 as % of hEphA4-SEAP-His” value amounted to 5.1%.
On to B7, for which the “A450 as % of hEphA4-SEAP-His” value turned out to be 5.8%.
Same read-out and setting: for B8 the value was 5.2%; for B9, 6.1%; for B10, 6.5%.

The next test concerns the target T1, human EphA1 extracellular …. Kind of test: ELISA.
On to B1, for which the “A450 as % of hEphA4-SEAP-His” value came out at 5.9%.
B2: the “A450 as % of hEphA4-SEAP-His” value was 5.5%.
As to B3, the “A450 as % of hEphA4-SEAP-His” value worked out at 5.7%.
As for B4, the “A450 as % of hEphA4-SEAP-His” value was determined as 5.3%.
On the same count and under the same terms, for B5 the value was 5.8%; for B6, 5.2%.
Regarding B7, the “A450 as % of hEphA4-SEAP-His” value was 5.5%.
Still for that read-out and setting: for B8 the value was 5.1%; for B9, 5.8%.
In the case of B10, the “A450 as % of hEphA4-SEAP-His” value came out at 7%.

In a further test the target is T5, human EphA5 extracellular region-SEAP-His protein (human, UniProt P54756 25-573).
T5 construct: extracellular domain; also called hEphA5-SEAP-His
T5 sequence (P54756 25-573): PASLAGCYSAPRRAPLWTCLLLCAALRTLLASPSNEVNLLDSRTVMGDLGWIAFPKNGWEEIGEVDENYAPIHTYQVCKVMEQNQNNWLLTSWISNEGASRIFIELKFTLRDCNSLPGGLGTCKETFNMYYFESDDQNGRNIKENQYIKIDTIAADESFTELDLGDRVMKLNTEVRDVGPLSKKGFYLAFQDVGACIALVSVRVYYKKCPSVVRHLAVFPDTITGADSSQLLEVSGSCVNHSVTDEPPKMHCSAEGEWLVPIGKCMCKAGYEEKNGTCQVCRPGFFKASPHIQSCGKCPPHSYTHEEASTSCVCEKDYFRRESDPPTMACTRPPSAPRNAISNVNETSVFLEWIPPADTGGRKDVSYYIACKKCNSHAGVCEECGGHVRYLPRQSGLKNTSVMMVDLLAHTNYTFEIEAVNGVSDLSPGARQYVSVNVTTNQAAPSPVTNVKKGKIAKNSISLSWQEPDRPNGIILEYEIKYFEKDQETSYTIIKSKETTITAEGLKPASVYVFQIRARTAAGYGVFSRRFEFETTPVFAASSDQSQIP
Kind of test: ELISA.
As to B1, the “A450 as % of hEphA4-SEAP-His” value was determined as 5.7%.
Same read-out and setting: for B2 the value was 5.4%; for B3, 5.7%.
In the case of B4, the “A450 as % of hEphA4-SEAP-His” value came out at 5.4%.
For B5, the “A450 as % of hEphA4-SEAP-His” value turned out to be 6.4%.
For B6, the “A450 as % of hEphA4-SEAP-His” value was 5.1%.
Take B7: the “A450 as % of hEphA4-SEAP-His” value was determined as 5.8%.
On to B8, for which the “A450 as % of hEphA4-SEAP-His” value came out at 5.1%.
On to B9, for which the “A450 as % of hEphA4-SEAP-His” value stood at 5.9%.
On to B10, for which the “A450 as % of hEphA4-SEAP-His” value is 6.8%.

The target of the next test is T2, human EphA7 extracellular …. Description: ELISA.
For B1, the “A450 as % of hEphA4-SEAP-His” value stood at 5.6%.
Turning to B2, the “A450 as % of hEphA4-SEAP-His” value turned out to be 5.2%.
On to B3, for which the “A450 as % of hEphA4-SEAP-His” value was determined as 5.5%.
In the case of B4, the “A450 as % of hEphA4-SEAP-His” value was 5.3%.
Consider B5, for which the “A450 as % of hEphA4-SEAP-His” value amounted to 5.6%.
The same measure, in the same setting: for B6 the value was 4.9%; for B7, 5.4%.
In the case of B8, the “A450 as % of hEphA4-SEAP-His” value came out at 4.9%.
Take B9: the “A450 as % of hEphA4-SEAP-His” value amounted to 6%.
As to B10, the “A450 as % of hEphA4-SEAP-His” value came to 6.4%.

Another test concerns the target T3, human EphB3 extracellular …. Description: ELISA.
As for B1, the “A450 as % of hEphA4-SEAP-His” value is 5.9%.
Regarding B2, the “A450 as % of hEphA4-SEAP-His” value is 5.4%.
As to B3, the “A450 as % of hEphA4-SEAP-His” value came to 5.6%.
For the molecule B4, the “A450 as % of hEphA4-SEAP-His” value stood at 5.5%.
In the case of B5, the “A450 as % of hEphA4-SEAP-His” value was found to be 7%.
As to B6, the “A450 as % of hEphA4-SEAP-His” value came out at 5.1%.
Consider B7, for which the “A450 as % of hEphA4-SEAP-His” value is 5.7%.
Take B8: the “A450 as % of hEphA4-SEAP-His” value was 5.1%.
On to B9, for which the “A450 as % of hEphA4-SEAP-His” value was found to be 6.3%.
Regarding B10, the “A450 as % of hEphA4-SEAP-His” value was determined as 6.9%.

The target of a further test is T4, human EphB6 extracellular …. Description: ELISA.
In the case of B1, the “A450 as % of hEphA4-SEAP-His” value amounted to 5.7%.
For B2, the “A450 as % of hEphA4-SEAP-His” value was determined as 5.2%.
As to B3, the “A450 as % of hEphA4-SEAP-His” value is 5.9%.
The same measure, in the same setting: for B4 the value was 5.3%; for B5, 6.3%; for B6, 5%.
For B7, the “A450 as % of hEphA4-SEAP-His” value worked out at 4.8%.
Still for that read-out and setting: for B8 the value was 5.2%; for B9, 6.1%; for B10, 6.5%.
